{"source": "patent US20260042834A1", "about": "“ANTI-CORTICOTROPIN-RELEASING HORMONE ANTIBODIES AND POLYCYSTIC OVARY SYNDROME” (HBM ALPHA THERAPEUTICS, INC., priority 2022, published 2026)", "test_system": "restraint-induced ACTH and corticosterone", "experiment": "Wildtype mice restraint-stress model (ACTH and corticosterone)", "type": "in vivo, mouse", "protocol": "8-10 week old wildtype female C57BL/6 mice were obtained from Charles River Laboratories. Mrap1 KO mice were obtained from Queen Mary University of London, UK. SSR125543A, a small molecule CRHR1 antagonist, was obtained from Axon Medchem (Cat #Axon 1799). Mouse Corticosterone (55-Corms-E01) and adrenocorticotropic hormone (ACTH) ELISA kits (21-ACTHU-E01) were obtained from ALPCO, USA. All procedures were carried out in accordance with the Guide for the Care and Use of Laboratory Animals of the National Institutes of Health. Protocols were approved by Charles River Laboratories Institutional Animal Care and Use Committee (IACUC).\nTo determine the effect of nonpainful physical restraint upon stress responses, mice were restrained in 50 ml polypropylene ventilated tubes in which the tip was cut off with a razor blade to allow the mouse to breathe easily for 15-20 minutes. A mouse was directed to the open tube and crawled in. A piece of paper towel was put behind the mouse so that it could not back out, and the cap was screwed on. The mouse was placed back in its cage, ventral size down on the bedding. This stressor is not considered painful, as mice are confined to a limited space (in a ventilated restraint tube) but not in an unnatural physical position. The investigator was present in the room during the entire procedure. At the end of the procedure, the mouse was removed by the tail.\nOn day 1, each mouse was injected intraperitoneally with 20 mg/kg of anti-CRH mAbs, hIgG1 or PBS (5 mice per group). On day 2 or 3, and 14 each mouse was subjected to physical restraint-stress described above for 15 or 20 min. Immediately after restraint-stress, 200 μl of blood was collected in EDTA tubes from the submandibular vein of each mouse. Plasma was separated using a refrigerated centrifuge (4° C. at 500×g for 10 min) and snap-frozen in dry ice for subsequent ACTH and corticosterone ELISA measurement.\nOn day 1, one half of mice were injected IP with 20 mg/kg of anti-CRH Ab or hIgG1 (5 mice per group). On day 3, the other half of mice were injected IP with 30 mg/kg of SSR125543A or solvent (5 mice each group). Two hours later, four groups of mice were subjected to restraint-stress as described above for 20 min. Immediately after restraint-stress, 200 μl of blood was collected in EDTA tubes from the submandibular vein of each mouse in all four groups. Plasma was separated as described above and snap-frozen in dry ice for subsequent ACTH and corticosterone ELISA measurement. On day 4, SSR125543A or solvent-treated mice were subjected to a second round of restraint stress for 20 min and plasma was collected. Two weeks later, anti-CRH mAb- or hIgG1-treated mice were subjected to physical stress for 20 min followed by plasma collection.", "data": [{"molecule": "PR302334-24: humanized variant of Series 9 mAb PR302334; VH SEQ ID NO: 275, VL SEQ ID NO: 328 (antibody, V domains shown, PR302334-16 VH, PR302334-24 VH, PR302334-25 VH; PR302334-10 VL, PR302334-24 VL, PR302334-26 VL, PR302334-4 VL) VH: EVQLVESGGGLVKPGGSLRLSCAASGFTFSTYAMSWVRQAPGKGLEWVASIRSGGTTYYPDSVKGRFTISRDNAKNSLYLQMNSLRAEDTAVYYCTRGIDWGQGTTVTVSS VL: DIVMTQSPDSLAVSLGERATINCKASQSVNNDVAWYQQKPGQPPRLLIYYASNRYTGVPDRFSGSGSGTDFTLTISSLQAEDLAVYFCQQDYSSWTFGGGTKVEIK", "values": [{"measurement": "efficacy versus SSR125543A at inhibiting restraint induced ACTH and corticosterone", "setting": "doses not given", "result": "superior efficacy"}, {"measurement": "duration of the effects", "setting": "restraint", "result": "at least 17 days"}, {"measurement": "inhibition of ACTH and corticosterone versus SSR125543A", "setting": "restraint", "result": "more complete inhibition"}, {"measurement": "efficacy in reducing plasma ACTH and corticosterone levels versus SSR125543A at 30 mg/kg", "setting": "restraint, mAb 20 mg/kg", "result": "more efficacious"}]}]}
